How the values were obtained:
[1] = biological target: carboxyl terminal domain of rat Cx43 (Cx43CT; residues S255-I382) (rat, UniProt P08050 255-382); experiment: NMR titration
[2] = biological target: ubiquitin (from bovine erythrocytes) (bovine, UniProt P0CG53 1-76); experiment: NMR titration

carboxyl terminal domain of rat Cx43 (Cx43CT; residues S255-I382), sequence (P08050 255-382): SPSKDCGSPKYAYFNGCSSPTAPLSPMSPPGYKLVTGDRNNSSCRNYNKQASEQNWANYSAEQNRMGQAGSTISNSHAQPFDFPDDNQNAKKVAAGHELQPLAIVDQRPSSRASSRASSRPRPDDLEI

MPEVRFQQQLEQLNSMGFINREANLQALIATGGDINAAIERLLGSQLS (domain or fragment, mouse, UniProt Q99NB8 549-596, looked up) [UBA domain of CIP75 (connexin43-interacting protein of approximately 75 kDa), residues M549-S596]
binding result [1]: binds
binding result [2]: binds

Reference: PMC2877510 (Journal of biomolecular NMR, 2010)
